The text below walks through data of patent publication US8063012B2, “Neuroprotective peptide inhibitors of AP-1 signaling and uses therefor” (Phylogica Limited, priority 2006, dated 2011).

The target in assay [1] is T1, interaction between JUN1 and JunZ (c-Jun dimerization) (Homo sapiens, UniProt P05412).
T1 construct: Partial fragments of c-Jun i.e., JunZ (774-927 bp) and Jun1 (558-1002 bp); expressed in transfected cells; host or cells: Saccharomyces cerevisiae strain PRT480, mated with library strain PRT51
T1 sequence (P05412 259-309 limits assumed): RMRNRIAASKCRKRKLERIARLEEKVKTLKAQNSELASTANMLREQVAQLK
T1 sequence (P05412 187-331 limits assumed): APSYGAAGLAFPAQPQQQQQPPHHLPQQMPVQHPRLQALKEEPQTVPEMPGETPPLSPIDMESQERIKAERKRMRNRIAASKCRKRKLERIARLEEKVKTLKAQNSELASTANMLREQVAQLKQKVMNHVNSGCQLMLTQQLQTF
In words: Reverse-2-hybrid screening for inhibition of c-Jun dimerization in yeast. The class given is cell-based. As to conditions: for yeast survival on media for counter-selection against AP-1 complex formation viz. c-Jun dimerization: initial reverse-two-hybrid screen, clones expressed from pYTB3; for recapitulation of the disruption phenotype: plasmid clones rescued and re-transformed, two assays. From the text: The yeast two hybrid system described by Vidal.M., In: The Yeast Two Hybrid System (eds. P. Bartel and S. Fields), Oxford University Press, New York (1997), was modified to add another counter selectable marker (CYH2) and to allow flexible titration of stringency by adjustment of sugar concentrations in the screening media.
Partial fragments of c-Jun i.e., JunZ (774-927 bp) and Jun1 (558-1002 bp), were cloned into yeast two-hybrid vectors pDD (a kanamycin-resistant variant of pGilda bait vector) and pJFK (pYesTrp prey vector (Invitrogen) modified by replacing the TRP1 yeast selection gene with HIS5), respectively, before co-transforming into Saccharomyces cerevisiae strain PRT480 (MATα, his3, trp1, ura3, 4 LexA-LEU2, lys2::3 cIop-LYS2, CAN^R, CYH2^R, ade2::2 LexA-CYH2-ZEO, his5::2 LexA-URA3-G418) using a standard lithium-acetate based chemical transformation protocol.
The Phylomer™ peptide library was transformed into S. cerevisiae strain PRT51 (MATα, his3, trp1, ura3, 6 LexA-LEU2, lys2::3 cIop-LYS2, CYH2^R, ade2::G418-pZero-ade2, met15::Zeo-pBLUE-met15, his5::hygro), using a high-efficiency lithium acetate-based chemical transformation protocol, slightly modified to maximize the number of transformants.
Bait/prey plasmid containing PRT480 haploids (10^8 cells) were mated with the Phylomer™ library (10^7 c.f.u.) according to a liquid mating protocol for pretransformed libraries (Clontech, USA), and plated to HW^− minimal media (minimal media lacking histidine and tryptophan) to select for diploids. These plates were scraped after 2 days incubation at 30° C., and the cells were washed, resuspended 1:1 (v/v) in yeast freezing solution (65% v/v glycerol, 0.1M MgSO4, 25 mM Tris-Cl pH 8.0), and frozen at −80° C. in 1 ml aliquots.
To select peptides that block formation of an AP-1 complex requiring the interaction between JUN1 and JunZ, about 1.5×10^7 c.f.u Jun/Phylomer™ diploids were thawed and outgrown overnight in HW^− to achieve log-phase growth. The following day, 4×10^7 cells were plated onto counter-selective media: HWU^− (lacking histidine, tryptophan and uracil), containing supplements of 0.02% galactose (gal), 2% raffinose (raff), 0.2 μg/ml uracil, 0.06% (w/v) 5-Fluoroorotic acid (FOA), 5 μg/ml cycloheximide. These plates were incubated for 7 days, then colonies were picked to HWU^− 0.02% gal, 2% raff, and then to HWL^− (lacking histidine, tryptophan and leucine) 0.02% gal, 2% raff to confirm blocking phenotype.
These included transformants comprising the clones designated PYC19 [DNA sequence set forth in SEQ ID NO: 26; encoded amino acid sequence set forth in SEQ ID NO: 27 (with FLAG epitope) and 28 (without FLAG epitope)]; PYC35 [DNA sequence set forth in SEQ ID NO: 34; encoded amino acid sequence set forth in SEQ ID NO: 35 (with FLAG epitope) and 36 (without FLAG epitope)]; PYC36 [DNA sequence set forth in SEQ ID NO: 43; encoded amino acid sequence set forth in SEQ ID NO: 44 (with FLAG epitope) and 45 (without FLAG epitope)]; PYC38/39 [DNA sequence set forth in SEQ ID NO: 52; encoded amino acid sequence set forth in SEQ ID NO: 53 (with FLAG epitope) and 54 (without FLAG epitope)]; and PYC41 [DNA sequence set forth in SEQ ID NO: 60; encoded amino acid sequence set forth in SEQ ID NO: 61 (with FLAG epitope) and 62 (without FLAG epitope)].
Subsequently, the individual plasmid clones were rescued from the yeast and re-transformed to confirm the disruption phenotype; 63% of the primary “hits”, including PYC 19, PYC35, […], PYC38/39 and PYC41, were positive in two assays for recapitulation of the phenotype.

The test system of assay [2] is AP-1 luciferase reporter in K562/AP1-Luc cells. The assay can be described thus: Luciferase reporter gene assay of AP-1 dependent transcriptional activity. The class given is cell-based. To be noted: pcDNA3-peptide transfection, 48 hours, normalised to renilla, vs pcDNA3 vector. The procedure: Phylomer™ peptides that inhibit an AP-1 complex formation as described in Example 1 were tested for their ability to decrease AP-1 controlled reporter expression (since Jun dimers are AP-1 moieties). A transient transfection assay in which the expression of each clone was plasmid driven was employed, thereby avoiding the synthesis of large numbers of peptides.
The K562 cell line was stably-transfected with the AP-1 luciferase reporter (AP1-Luc) of the Mercury Pathway Profiling kit (Clontech, U.S.A.), and the clonal cell line K562/AP1-Luc was established. In 6-well tissue culture plate format, K562/AP1-Luc cells were transfected with either pcDNA3 control, pcDNA3-JunDN (a dominant negative mutant of c-Jun), or pcDNA3-peptide, using Lipofectamine2000 (Life Technologies) according to manufacturer's instructions. Transfection reactions were incubated for 48 hours, cells collected and protein lysates extracted for luciferase assay according to Mercury Pathway Profiling kit and associated protocols.
Luciferase assays were performed in independent triplicates, and results for each peptide subjected to statistical analysis (SPSS software package) to determine if they were different to JunDN (positive control for AP-1 inhibition) or pcDNA-3 (negative control for AP-1 inhibition).
All AP-1 luciferase values were normalised to the renilla expression from a cotransfection control. Under these experimental conditions, approximately 30% of Phylomer™ peptides decreased AP-1 reporter activity by at least 50% when compared to the vector-only control (i.e., pcDNA3 vector). More particularly, the peptides designated PYC35, PYC36, PYC38/39 and PYC41 reduced AP-1 reporter activity to approximately 35%, 44%, 47% and 48%, respectively of the level observed for the control sample.
A general note: A reporter such as luciferase makes a cellular process visible.

In assay [3] the test system is neurons around the lesion in the somatosensory cortex. In words: Acute cortical injury (focal traumatic brain injury), immunoreactivity in perilesion area. In kind it is in vivo. As to conditions: acute cortical injury of rat brain tissue in situ. The protocol: The ability of AP-1 signaling-inhibitory peptides to inhibit neuronal apoptosis was assessed by loss of MAP2 immunoreactivity in a focal model of traumatic brain injury (Chung et al., J. Neuroscience 23, 3336-3342, 2003; King et al., Neuropathol Appl Neurobiol. 27, 115-126, 2001).
Rats were subjected to acute cortical injury as previously described by Chung et al., J. Neuroscience 23, 3336-3342 (2003) and King et al., Neuropathol Appl Neurobiol. 27, 115-126 (2001). Briefly, male 240 g Hooded-Wistar rats were deeply anaesthetized using Isofluorane (2-3%) and were given an analgesic (Meloxycam, […]), by subcutaneous injection. Animals were immobilized in a Stoelting stereotactic frame, and a 21 gauge blunt Hamilton syringe was inserted into the Par1 region of the somatosensory cortex to a depth of 2 mm and was left in place for 10 minutes. Then, 0.5 μl of 5 μM peptide was administered through the syringe at a rate of 0.05 μl/min. Peptide (10 μl) was applied to 1 mm^2 of Gelfoam, which was implanted before suturing. At 1 day post-injury (PI), rats were deeply anaesthetized with sodium pentobarbital (60 mg/kg), then perfused transcardially with a 4% paraformalydehyde and 4% sucrose fixative solution in 0.01M PBS. Brains were removed and cryoprotected in 18% and 30% sucrose solutions, respectively and 40 μm coronal sections were collected serially through the injury site for immunohistochemical labelling. All animal procedures were approved by the University of Tasmania Animal Ethics Committee (Permit A008878).
Sections were labelled with Nissl Red, Nuclear Yellow and anti-MAP2 to allow a quantitative assessment of neuronal loss around the lesion. Sections from the lesion centre and 200 μm anterior and posterior to the centre of the injury, at layer III of the neocortex were included in the analysis and the area of MAP2 loss was scored by blinded observers. Three sections from each of three animals were examined for each treatment and significance assessed by ANOVA and post-hoc comparison (Tukey test).
All data are presented as mean±standard error. […]

Turning to “PYC41: Phylomer clone; encoded amino acid sequence SEQ ID NO: 61 (with FLAG epitope) and 62 (without FLAG epitope) (VSINQEHHRLLPL; PYC41L peptide)”, in assay [1], the “yeast survival on media for counter-selection against AP-1 complex formation viz. c-Jun dimerization” value is recorded as “allowed yeast survival” and the “recapitulation of the disruption phenotype” value (shortened to “recapitulation”) is “positive”. Further, the “AP-1 reporter activity, of the level observed for the control sample” value (from here on “AP-1 reporter activity”) in assay [2] is given as ~48%.

In the case of “PYC38/39: Phylomer clone; encoded amino acid sequence SEQ ID NO: 53 (with FLAG epitope) and 54 (without FLAG epitope) (GLQGRRQPGQQPQGRWSGRALPAHR; PYC38/39L peptide)”, in assay [1], the “yeast survival on media for counter-selection against AP-1 complex formation viz. c-Jun dimerization” value is listed as “allowed yeast survival” and the “recapitulation” value is listed as “positive”. The “AP-1 reporter activity” value in assay [2] is recorded as ~47%.

In the case of “PYC35: Phylomer clone; encoded amino acid sequence SEQ ID NO: 35 (with FLAG epitope) and 36 (without FLAG epitope) (AYQSIRSGGIESSSKRER; PYC35L peptide)”, in assay [1], the “yeast survival on media for counter-selection against AP-1 complex formation viz. c-Jun dimerization” value is recorded as “allowed yeast survival” and the “recapitulation” value is listed as “positive”. Further, the “AP-1 reporter activity” value in assay [2] is listed as “approximately 35%”. Also, in assay [3], the “astrogliosis as determined by glial fibrillary acidic protein immunoreactivity” value is “reduced astrogliosis”, the “loss of neurons as determined by MAP2 immunoreactivity” value was “reduced loss of neurons” and the “microglial activation as determined by ferritin immunoreactivity” value was “reduced microglial activation”.

“PYC36: Phylomer clone; encoded amino acid sequence SEQ ID NO: 44 (with FLAG epitope) and 45 (without FLAG epitope) (GLQGRRRQGYQSIKP; PYC36L peptide)”: in assay [1], the “yeast survival on media for counter-selection against AP-1 complex formation viz. c-Jun dimerization” value is given as “allowed yeast survival” and the “recapitulation” value is “positive”. In assay [2], the “AP-1 reporter activity” value is on record as ~44%.

Take “PYC19: Phylomer clone; encoded amino acid sequence SEQ ID NO: 27 (with FLAG epitope) and 28 (without FLAG epitope) (LINQSYAYPYIY; PYC19L peptide)”: in assay [1], the “yeast survival on media for counter-selection against AP-1 complex formation viz. c-Jun dimerization” value was “allowed yeast survival” and the “recapitulation” value is given as “positive”.
